# Experimental data: PMC12233092, “NSUN2-mediated HCV RNA m5C Methylation Facilitates Viral RNA Stability and Replication”
# What was measured:
# Details in all cases: protein: recombinant; tags: 6xHis; blunt
# E2F1 [1] = biological target: T1, E2F1 (Homo sapiens? (cDNA amplified, Huh7.5.1 …, UniProt Q01094 1-437)); test: EMSA; E2F1 50-400 nM, probe 10 nM; EMSA binding buffer (Beyotime GS005; composition and pH not given), room temperature, 30 min; 8% TBE agarose gel as stated, on ice, 80 V 1.5 h
# T1 sequence (Q01094 whole entry): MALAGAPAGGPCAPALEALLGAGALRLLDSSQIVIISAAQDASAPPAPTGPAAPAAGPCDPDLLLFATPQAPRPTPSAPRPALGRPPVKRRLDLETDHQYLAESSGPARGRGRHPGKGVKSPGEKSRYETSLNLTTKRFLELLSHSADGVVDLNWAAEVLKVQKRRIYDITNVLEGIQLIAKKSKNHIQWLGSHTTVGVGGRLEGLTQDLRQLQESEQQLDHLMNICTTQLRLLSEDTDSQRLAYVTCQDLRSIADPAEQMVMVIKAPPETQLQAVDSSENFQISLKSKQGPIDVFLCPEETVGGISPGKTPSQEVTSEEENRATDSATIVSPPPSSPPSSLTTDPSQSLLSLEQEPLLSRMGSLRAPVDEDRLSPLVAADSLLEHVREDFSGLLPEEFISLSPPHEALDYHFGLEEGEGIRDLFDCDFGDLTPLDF
# E2F1 [2] = biological target: T1, E2F1; test: EMSA; probe 10 nM; EMSA binding buffer (Beyotime GS005; composition and pH not given), room temperature, 30 min; 8% TBE agarose gel as stated, on ice, 80 V 1.5 h
# E2F1 [3] = biological target: T1, E2F1; test: competition; 10 uM unlabeled competitor vs 10 nM FAM-labeled N1; interaction abrogated; EMSA binding buffer (Beyotime GS005; composition and pH not given), room temperature, 30 min; 8% TBE agarose gel as stated, on ice, 80 V 1.5 h
binder,measurement,setting,value
NSUN2-Promoter-probe (dsDNA) DNA 1: CTGACGATTGCGCGCGAAGACCGCGCAGCCCA DNA 2: TGGGCTGCGCGGTCTTCGCGCGCAATCGTCAG,binding result,E2F1 [1],binds
NSUN2-Promoter-Mut-probe (dsDNA) DNA 1: CTGACGATGGGATTCTTTGACCGCGCAGCCCA DNA 2: TGGGCTGCGCGGTCAAAGAATCCCATCGTCAG,binding result,E2F1 [2],no binding
"NSUN2-Promoter-probe, unlabeled competitor (dsDNA) DNA 1: CTGACGATTGCGCGCGAAGACCGCGCAGCCCA DNA 2: TGGGCTGCGCGGTCTTCGCGCGCAATCGTCAG",binding result,E2F1 [3],binds
